{"source": "patent US8604172B2", "about": "“Humanized antibody compositions and methods for binding lysophosphatidic acid” (Lpath, Inc., priority 2009, dated 2013)", "key": {"[1]": {"test_system": "angiogenesis in Caki-1-containing plugs", "experiment": "Matrigel Plug assay with Caki-1 cells, CD31 staining", "format": "in vivo, nude (NCr Nu/Nu) female mice", "settings": "10 mg/kg every 3 days; vs saline; p<0.05", "protocol": "One of the anti-LPA mAbs (B7) was tested for its ability to mitigate angiogenesis in vivo using the Matrigel Plug assay. This assay utilizes Matrigel, a proprietary mixture of tumor remnants including basement membranes derived from murine tumors. When Matrigel, or its derivate growth factor-reduced (GFR) Matrigel, is injected sc into an animal, it solidifies and forms a ‘plug.’ If pro-angiogenic factors are mixed with the matrix prior to placement, the plug will be invaded by vascular endothelial cells which eventually form blood vessels. Matrigel can be prepared either alone or mixed with recombinant growth factors (bFGF, VEGF), or tumor cells and then injected sc in the flanks of 6-week old nude (NCr Nu/Nu) female mice. In this example, Caki-1 (renal carcinoma) cells were introduced inside the Matrigel and are producing sufficient levels of VEGF and/or IL8 and LPA. Matrigel plugs were prepared containing 5×10^5 Caki-1 cells from mice treated with saline or with 10 mg/kg of anti-LPA mAb-B7, every 3 days starting 1 day prior to Matrigel implantation. Plugs were stained for endothelial CD31, followed by quantitation of the micro-vasculature formed in the plugs. Quantitation data were means+/−SEM of at least 16 fields/section from 3 plugs."}, "IL-8 in Caki-1 cells": {"test_system": "IL-8 in Caki-1 cells", "experiment": "LPA-induced IL-8 production in Caki-1 cells", "format": "cell-based, human", "settings": "18:1 LPA (0.2 mM), 0.1-30 μg/mL mAb, 24 h", "protocol": "Three anti-LPA mAbs (B3, B7 and B58) were tested for their abilities to reduce in vitro IL-8 production compared to a non-specific antibody (NS). Caki-1 cells were seeded in 96 well plates and grown to confluency. After overnight serum starvation, cells were treated with 18:1 LPA (0.2 mM) with or without anti-LPA mAb B3, B7, B58 or NS (Non-Specific). After 24 h, cultured supernatants of renal cancer cells (Caki-1), treated with or without LPA and in presence of increasing concentrations of the anti-LPA mAbs B3, B7 and B58, were collected and analyzed for IL-8 levels using a commercially available ELISA kit (Human Quantikine Kit, R&D Systems, Minneapolis, Minn.). […] The inhibition of IL-8 release by the anti-LPA mAbs was also observed in other cancerous cell lines such as the pancreatic cell line Panc-1."}, "Thermostability (Tm)": {"experiment": "Thermostability (Tm)", "format": "physicochemical", "protocol": "The thermostability of the humanized antibodies were studied by measuring their LPA-binding affinity (EC50) after heating using the direct binding ELISA. Antibodies dissolved in PBS (Cellgo, Cat. No 021-040) were diluted to 25 ug/ml and incubated at 60° C., 65° C., 70° C., 75° C. and 80° C. for 10 min. Prior to increasing the temperature, 10 ul of each sample was removed and diluted with 90 ul of PBS and stored on ice. The samples were then vortexed briefly and the insoluble material was removed by centrifugation for 1 min at 13,000 rpm. The binding activity of the supernatant was determined using the direct LPA-binding ELISA and compared to a control, which consisted of the same sample without heat treatment."}, "[2]": {"experiment": "Competition ELISA (18:1 LPA coat), competitor 18:2 LPA", "format": "binding", "settings": "maximum inhibition", "protocol": "Many isoforms of LPA have been identified to be biologically active and it is preferable that the mAb recognize all of them to some extent to be of therapeutic relevance. The specificity of the anti-LPA mAbs was evaluated utilizing a competition assay in which the competitor lipid was added to the antibody-immobilized lipid mixture.\nCompetition ELISA assays were performed with the anti-LPA mAbs to assess their specificity. 18:1 LPA was captured on ELISA plates. Each competitor lipid (up to 10 uM) was serially diluted in BSA (1 mg/ml)-PBS and then incubated with the mAbs (3 nM). Mixtures were then transferred to LPA coated wells and the amount of bound antibody was measured with a secondary antibody. Data are normalized to maximum signal (A450) and are expressed as percent inhibition. Assays were performed in triplicate. IC50: Half maximum inhibition concentration; MI: Maximum inhibition (% of binding in the absence of inhibitor); - - -: not estimated because of weak inhibition. A high inhibition result indicates recognition of the competitor lipid by the antibody."}, "[3]": {"test_system": "IL-6 release in SKOV3 cells", "experiment": "LPA-induced IL-6 release in SKOV3 cells", "format": "cell-based, human", "settings": "Lpathomab 600 μg/mL; 1 μM 18:1 LPA; n = 3", "protocol": "Anti-LPA antibodies inhibit the LPA-dependant release of human CXCL8/IL-8 in conditioned media of SKOV3 ovarian cells. SKOV3 cells (Lot No 4255558, passage 14) were harvested with 2 ml of 1× Trypsin EDTA (Mediatech Inc, Cat. No 25-053-CV) and resuspended in 8 ml of complete medium (10% FBS, Mediatech Inc. Cat. no 35-011-CV). The cells were centrifuged for 5 min ([…]) and re-suspended in 5 ml of complete medium. Cells were counted in duplicate with 0.4% Trypan blue (10 ul cells plus 90 ul Trypan blue, Invitrogen, Cat. No 15250-061) using a hemocytometer. In a 96-well plate, 1×10^5 cells per well were seeded (final volume 100 ul/well). The cells were allowed to attach and form a confluent monolayer by incubating overnight at 37° C. On the following day, cells were gently washed two times with minimum media (1 mg/ml BSA in McCoy's medium with L-glutamine, Mediatech, Cat. No 10-050-CV). […] The CXCL8/IL-8 levels in each supernatant were measured using the Quantikine human CXCL8/IL-8 ELISA kit according to vendor instructions (R&D Systems, Minneapolis Minn., Cat. No D8000C). The IL-6 levels were measured by ELISA using the Quantikine human IL-6 immunoassay kit (R&D systems, Cat. No. D6050). Data were analyzed by one-way ANOVA followed by Bonferroni's post test and expressed as human IL-8 or human IL-6 fold increase."}}, "note": "Marks after values point to notes of the source that are not given here.", "data": [{"molecule": "LT3000: Murine anti-LPA monoclonal antibody clone B7, IgG1k, renamed Lpathomab, also known as LT3000; hybridoma 504B7.1, ATCC PTA-8420 (antibody, V domains shown) VH: QVQLQQSGAELVRPGTSVKVSCKASGYGFINYLIEWIKQRPGQGLEWIGLINPGSDYTNYNENFKGKATLTADKSSSTAYMHLSSLTSEDSAVYFCARRFGYYGSGNYFDYWGQGTTLTVSS VL: DVVMTQTPLSLPVSLGDQASISCTSGQSLVHINGNTYLHWYLQKPGQSPKLLIYKVSNLFSGVPDRFSGSGSGTDFTLKISRVEAEDLGVYFCSQSTHFPFTFGTGTKLEIK", "values": [{"measurement": "reduction in angiogenesis", "setting": "[1]", "value": "greater than 50%"}, {"measurement": "IL-8 expression", "setting": "IL-8 in Caki-1 cells", "value": "significantly reduced in a dose-dependent manner"}, {"measurement": "Tm", "setting": "Thermostability (Tm); 10 min at 60-80° C., LPA binding by direct ELISA", "value": 67, "unit": "°C"}, {"measurement": "Apparent Tm", "setting": "Thermostability (Tm); pH 7.4", "value": 67, "unit": "°C at pH 7.4"}, {"measurement": "MI, 18:2 LPA", "setting": "[2]", "value": 100, "unit": "%"}, {"measurement": "IL-6 Release, % Inhibition (over LPA taken as 100)", "setting": "[3]", "value": "23* %"}]}]}
